Laboratory results: patent publication US20130022601A1 (Hoffmann-La Roche, published 2013)
Blank lines part the entries; values can stand above or below the binder they belong to.

Key:
Her3 (ErbB3) receptor = target: T1, Her3 (ErbB3) receptor (human, UniProt P21860 20-1342); assay: flow cytometry on A431 cells, PE-coupled anti-human Fc secondary antibody
T1 construct: whole, on cells; Endogenous receptor on human cancer cell lines
Procedure: (§1) A431 were detached and counted. 1.5×10e5 cells were seeded per well of a conical 96-well plate. Cells were spun down (1500 rpm, 4° C., 5 min) and incubated for 30 min on ice in 50 μL of a dilution series of the respective bispecific antibody in PBS with 2% FCS (fetal calf serum). Cells were again spun down and washed once with 200 μL PBS containing 2% FCS followed by a second incubation of 30 min with a phycoerythrin-coupled antibody directed against human Fc which was diluted in PBS containing 2% FCS (Jackson Immunoresearch, 109116098). Cells were spun down washed twice with 200 μL PBS containing 2% FCS, resuspended in BD CellFix solution (BD Biosciences) and incubated for at least 10 min on ice. Mean fluorescence intensity (mfi) of the cells was determined by flow cytometry (FACS Canto, BD). Mfi was determined at least in duplicates of two independent stainings Flow cytometry spectra were further processed using the FlowJo software (TreeStar). Half-maximal binding was determined using XLFit 4.0 (IDBS) and the dose response one site model 205.
(§2) The binding properties of the bispecific antibodies to their respective receptor on the cell surface was analyzed on A431 cancer cells in a flow cytometry based assay. Cells were incubated with the mono- or bispecific primary antibodies and binding of these antibodies to their cognate receptors was detected with a secondary antibody coupled to a fluorophore binding specifically to the Fc of the primary antibody. The mean fluorescence intensity of a dilution series of the primary antibodies was plotted against the concentration of the antibody to obtain a sigmoidal binding curve. Cell surface expression of c-Met and Her3 was validated by incubation with the bivalent 5D5 and Her3 clone 29 antibody only. The Her3/c-Met_KHSS antibody readily binds to the cell surface of A431.

c-Met receptor = target: T2, c-Met receptor (human, UniProt P08581 25-1390); assay: as above
T2 construct: whole, on cells; Endogenous receptor on human cells
Procedure: as §1, §2

T1 sequence (P21860 20-1342): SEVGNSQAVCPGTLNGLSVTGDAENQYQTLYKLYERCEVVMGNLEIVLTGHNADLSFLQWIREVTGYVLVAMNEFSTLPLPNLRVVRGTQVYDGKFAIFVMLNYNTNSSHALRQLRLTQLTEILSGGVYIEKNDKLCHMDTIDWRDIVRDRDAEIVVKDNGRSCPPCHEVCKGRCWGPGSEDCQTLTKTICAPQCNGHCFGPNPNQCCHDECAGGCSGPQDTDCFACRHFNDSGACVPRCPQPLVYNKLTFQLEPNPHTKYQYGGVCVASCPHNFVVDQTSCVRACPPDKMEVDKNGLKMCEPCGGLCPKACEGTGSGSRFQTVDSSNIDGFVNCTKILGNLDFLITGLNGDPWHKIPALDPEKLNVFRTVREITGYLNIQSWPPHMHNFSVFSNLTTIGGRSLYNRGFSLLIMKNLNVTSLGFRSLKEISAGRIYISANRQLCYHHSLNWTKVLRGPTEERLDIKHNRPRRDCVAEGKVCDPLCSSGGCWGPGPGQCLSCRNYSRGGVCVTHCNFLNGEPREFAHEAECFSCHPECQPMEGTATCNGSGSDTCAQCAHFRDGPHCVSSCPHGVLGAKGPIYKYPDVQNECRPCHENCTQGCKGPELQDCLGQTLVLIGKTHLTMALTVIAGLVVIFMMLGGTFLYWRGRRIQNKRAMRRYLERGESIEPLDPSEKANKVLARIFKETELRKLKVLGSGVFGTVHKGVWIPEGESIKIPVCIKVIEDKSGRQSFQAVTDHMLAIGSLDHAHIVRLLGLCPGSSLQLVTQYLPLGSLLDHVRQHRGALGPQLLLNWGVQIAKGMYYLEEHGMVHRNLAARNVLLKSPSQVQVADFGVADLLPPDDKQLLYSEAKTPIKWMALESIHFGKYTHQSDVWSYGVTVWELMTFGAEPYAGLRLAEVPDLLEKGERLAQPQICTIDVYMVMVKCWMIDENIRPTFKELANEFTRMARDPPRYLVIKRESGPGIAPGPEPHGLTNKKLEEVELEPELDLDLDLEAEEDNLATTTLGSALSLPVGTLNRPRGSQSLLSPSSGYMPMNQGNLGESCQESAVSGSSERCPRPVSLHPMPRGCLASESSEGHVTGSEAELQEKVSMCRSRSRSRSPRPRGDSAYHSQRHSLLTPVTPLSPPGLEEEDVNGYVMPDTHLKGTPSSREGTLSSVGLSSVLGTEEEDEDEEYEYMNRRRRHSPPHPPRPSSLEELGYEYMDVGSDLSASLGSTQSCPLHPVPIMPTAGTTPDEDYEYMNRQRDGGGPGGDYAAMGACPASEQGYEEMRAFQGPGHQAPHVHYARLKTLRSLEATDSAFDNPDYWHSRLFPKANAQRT
T2 sequence (P08581 25-1390): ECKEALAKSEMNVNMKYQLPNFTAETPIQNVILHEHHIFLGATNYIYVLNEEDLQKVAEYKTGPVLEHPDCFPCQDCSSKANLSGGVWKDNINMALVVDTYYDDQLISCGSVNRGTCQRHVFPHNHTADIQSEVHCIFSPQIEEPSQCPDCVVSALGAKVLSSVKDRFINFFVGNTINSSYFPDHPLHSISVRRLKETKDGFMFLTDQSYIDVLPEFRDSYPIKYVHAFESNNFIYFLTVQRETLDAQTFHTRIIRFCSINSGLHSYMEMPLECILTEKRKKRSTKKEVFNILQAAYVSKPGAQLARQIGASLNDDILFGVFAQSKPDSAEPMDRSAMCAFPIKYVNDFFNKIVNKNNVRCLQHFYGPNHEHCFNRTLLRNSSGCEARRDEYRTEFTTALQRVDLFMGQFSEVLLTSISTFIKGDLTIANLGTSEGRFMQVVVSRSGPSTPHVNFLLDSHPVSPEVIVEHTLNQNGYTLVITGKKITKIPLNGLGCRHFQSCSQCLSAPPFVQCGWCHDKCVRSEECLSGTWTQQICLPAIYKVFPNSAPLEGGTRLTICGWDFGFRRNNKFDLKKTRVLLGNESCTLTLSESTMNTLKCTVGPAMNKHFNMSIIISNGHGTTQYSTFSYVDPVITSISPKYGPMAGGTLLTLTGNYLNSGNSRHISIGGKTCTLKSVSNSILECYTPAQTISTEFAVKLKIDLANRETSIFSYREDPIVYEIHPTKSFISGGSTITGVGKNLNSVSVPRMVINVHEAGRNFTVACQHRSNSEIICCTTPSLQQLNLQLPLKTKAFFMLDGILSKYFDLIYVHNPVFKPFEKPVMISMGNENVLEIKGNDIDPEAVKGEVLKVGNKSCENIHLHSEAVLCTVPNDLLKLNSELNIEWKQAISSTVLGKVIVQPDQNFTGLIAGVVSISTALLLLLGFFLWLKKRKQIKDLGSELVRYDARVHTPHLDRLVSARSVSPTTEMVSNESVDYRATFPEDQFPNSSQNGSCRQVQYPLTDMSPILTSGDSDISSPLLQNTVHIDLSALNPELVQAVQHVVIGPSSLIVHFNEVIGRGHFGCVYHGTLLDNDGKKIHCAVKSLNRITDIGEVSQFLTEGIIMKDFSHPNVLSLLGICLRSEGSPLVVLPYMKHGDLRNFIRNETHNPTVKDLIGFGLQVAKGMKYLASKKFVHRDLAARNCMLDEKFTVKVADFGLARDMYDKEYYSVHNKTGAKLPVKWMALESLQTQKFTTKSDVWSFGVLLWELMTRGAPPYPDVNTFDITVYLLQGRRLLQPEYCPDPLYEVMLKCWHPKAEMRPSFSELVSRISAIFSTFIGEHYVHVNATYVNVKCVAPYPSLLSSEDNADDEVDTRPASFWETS

binding result (Her3 (ErbB3) receptor): binds
B1: <ErbB3> HER3 clone 29 antibody (antibody, human IgG1, kappa, V domains shown)
VH: DVQLQESGPGLVKPSQSLSLTCSVTGYSITSAYYWNWIRQFPGNKLEWMGYISYGGSNSYAPSLKNRFSITRDTSKNQFFLKLNSVTTEDTATYYCARESDYAYFDYWGQGTTLTVSS
VL: DIQMTQTTSSLSASLGDRVTISCRARQDISNYLNWYQRKPDGTVKLLIYYTSRLHSGVPSRFSGSGSGTDYSLTISNLEQEDIATYFCQQGNTFPWTFGGGTKLEIKR
notes: Bivalent parental antibody (chimeric), with unmodified heavy and light chains; also called parental Her3 clone29

binding result (Her3 (ErbB3) receptor): binds
B2: trivalent, bispecific <ErbB3-c-Met> antibody Her3/Met_KHSS (bispecific antibody, human IgG1, kappa)
heavy 1: not shown
heavy 2: not shown
light: DIQMTQTTSSLSASLGDRVTISCRARQDISNYLNWYQRKPDGTVKLLIYYTSRLHSGVPSRFSGSGSGTDYSLTISNLEQEDIATYFCQQGNTFPWTFGGGTKLEIKRTVAAPSVFIFPPSDEQLKSGTASVVCLLNNFYPREAKVQWKVDNALQSGNSQESVTEQDSKDSTYSLSSTLTLSKADYEKHKVYACEVTHQGLSSPVTKSFNRGEC
notes: Full length Her3 clone 29 (chimeric) antibody with knobs-into-holes and CH3 disulfide mutations

binding result (c-Met receptor): binds
B3: <c-Met> Mab 5D5 (antibody, human IgG1, kappa, V domains shown)
VH: EVQLVESGGGLVQPGGSLRLSCAASGYTFTSYWLHWVRQAPGKGLEWVGMIDPSNSDTRFNPNFKDRFTISADTSKNTAYLQMNSLRAEDTAVYYCATYRSYVTPLDYWGQGTLVTVSS
VL: DIQMTQSPSSLSASVGDRVTITCKSSQSLLYTSSQKNYLAWYQQKPGKAPKLLIYWASTRESGVPSRFSGSGSGTDFTLTISSLQPEDFATYYCQQYYAYPWTFGQGTKVEIKR
notes: Bivalent 5D5 antibody (humanized), with unmodified heavy and light chains; also called bivalent 5D5; c-Met 5D5
